Results published in US20120172295A1.

Target: glucagon receptor (UniProt P47871)
Test: cell-based or functional assay

Sequence of glucagon receptor (P47871 26-477 limits assumed): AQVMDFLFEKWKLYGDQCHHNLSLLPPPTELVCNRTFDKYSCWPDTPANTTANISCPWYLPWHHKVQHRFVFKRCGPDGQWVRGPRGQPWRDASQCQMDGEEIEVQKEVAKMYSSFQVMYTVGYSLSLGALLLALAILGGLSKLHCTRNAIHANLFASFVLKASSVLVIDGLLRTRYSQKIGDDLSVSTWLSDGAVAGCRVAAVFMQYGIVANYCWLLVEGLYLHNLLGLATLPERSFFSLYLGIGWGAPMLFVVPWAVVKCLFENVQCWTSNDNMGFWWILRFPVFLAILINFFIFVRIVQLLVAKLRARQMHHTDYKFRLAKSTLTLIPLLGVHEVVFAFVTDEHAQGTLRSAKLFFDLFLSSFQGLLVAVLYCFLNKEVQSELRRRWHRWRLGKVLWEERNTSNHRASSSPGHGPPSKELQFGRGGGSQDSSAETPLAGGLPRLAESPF

% relative activity: 0.04%
Substance: Liraglutide (peptide)
